Laboratory results from patent US20210261641A1 (Novo Nordisk, published 2021).

Columns and labels:
human GLP-1 receptor [1] = target: T1, human GLP-1 receptor (human, UniProt P43220 24-463); assay: cell-based or functional assay
human GLP-1 receptor [2] = target: T1, human GLP-1 receptor; assay: displacement of [125I]-GLP-1(7-36)NH2 from BHK membranes with human GLP-1R, SPA, low HSA
Description: 1. For the receptor binding assay in the presence of low HSA (0.001%) 50 μl of the assay buffer was added to each well of an assay plate. Assay continued with step 3. 2. For the receptor binding assay in the presence of high HSA (2.0%) 50 μl of the 8% albumin stock was added to each well of an assay plate. Assay continued with step 3. 3. Test compounds were serially diluted to give the following concentrations: 8×10⁻⁷ M, 8×10⁻⁸ M, 8×10⁻⁹ M, 8×10⁻¹° M, 8×10⁻¹¹ M, 8×10⁻¹² M and 8×10⁻¹³ M. Twenty-five μl were added to appropriate wells in the assay plate. 4. Cell membrane aliquots were thawed and diluted to their working concentration. Fifty μl were added to each well in the assay plate. 5. WGA SPA beads were suspended in assay buffer at 20 mg/ml. The suspension was diluted to 10 mg/ml in assay buffer just prior to addition to the assay plate. Fifty μl were added to each well in the assay plate. 6. The incubation was started by adding 25 μl of 480 pM solution of [¹²⁵I]-GLP-1]-(7-36) NH₂ to each well of the assay plate. A 25 μl aliquot was reserved for measuring total counts/well. 7. The assay plate was incubated for 2 h at 30° C. 8. The assay plate was centrifuged for 10 min. 9. The assay plate was read in a Packard TopCount NXT instrument.
The data from the TopCount instrument were transferred to GraphPad Prism software. The software averaged the values for the replicates and performed a non-linear regression. IC₅₀ values were calculated by the software and reported in nM.

[3] = target: T2, mouse transferrin receptor (mouse, UniProt Q62351 1-763); assay: inhibition of uptake of 5 nM Cy5-labelled anti TfR-Fab into MEF-1 cells (mouse TfR), high-content imaging
T2 construct: whole, on cells; also called TfR
Description: The day before each assay the cells were plated out at 5000 cells/well. 2. On the assay day the cells were washed with HBSS containing 0.1% (w/v) HSA. 3. Test compounds were serially diluted to give the following concentrations: 2×10⁻⁶ M, 2×10⁻⁷ M, 2×10⁻⁸ M, 2×10⁻⁹ M, 2×10⁻¹° M, 2×10⁻¹¹ M, 2×10⁻¹² M and 2×10⁻¹³ M. 100 μl of each was added to appropriate wells in the assay plate. 4. To each of the wells the fluorescently-labelled Fab fragment was added to a final concentration of 5 nM. 5. The plates were incubated at 37° C. for 15 min. After incubation the buffer was removed and the cells were washed with HBSS containing 0.1% (w/v) HSA. 6. Fifty μl of cold 4% PFA was added in a fume hood. […] The assay plate was read in a high-content imaging instrument (IN Cell 2200 instrument, GE).
The data from the IN Cell instrument was analysed using the software that was supplied with the instrument. […] The amount of fluorescence that was internalised was calculated by defining granules visible in the Cy5 channel of the instrument and corresponded to internalised Cy5-labelled Fab fragment. The number and intensity of granules in each cell were calculated. The readout from the instrument that was used for further calculations was the total area of the granules divided by the number of cells in each acquisition field. […] IC50 values were calculated by the software and reported in nM.

T2 sequence (Q62351 whole entry): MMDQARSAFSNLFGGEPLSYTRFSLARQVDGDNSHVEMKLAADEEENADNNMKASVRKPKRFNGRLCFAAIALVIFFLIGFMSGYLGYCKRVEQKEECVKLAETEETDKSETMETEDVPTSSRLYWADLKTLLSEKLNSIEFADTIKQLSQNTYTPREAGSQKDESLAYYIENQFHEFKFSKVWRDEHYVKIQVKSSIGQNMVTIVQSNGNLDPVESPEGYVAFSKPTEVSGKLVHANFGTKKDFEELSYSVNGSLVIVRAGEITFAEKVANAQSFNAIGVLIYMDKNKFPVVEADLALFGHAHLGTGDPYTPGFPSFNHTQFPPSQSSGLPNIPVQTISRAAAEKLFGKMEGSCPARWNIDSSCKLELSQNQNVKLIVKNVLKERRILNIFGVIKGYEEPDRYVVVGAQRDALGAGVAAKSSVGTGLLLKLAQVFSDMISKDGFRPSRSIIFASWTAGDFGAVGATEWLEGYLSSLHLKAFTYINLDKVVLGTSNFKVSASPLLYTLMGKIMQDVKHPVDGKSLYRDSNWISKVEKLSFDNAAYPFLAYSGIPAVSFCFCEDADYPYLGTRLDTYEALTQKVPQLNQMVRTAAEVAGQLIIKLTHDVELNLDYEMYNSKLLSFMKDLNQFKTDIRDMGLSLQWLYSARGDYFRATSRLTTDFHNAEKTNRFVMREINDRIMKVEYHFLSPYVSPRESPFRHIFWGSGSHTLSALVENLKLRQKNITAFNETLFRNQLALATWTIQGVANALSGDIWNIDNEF

Binder	EC50/pM (0% HSA), in vitro potency, CRE luciferase reporter gene assay (human GLP-1 receptor [1]) [pM]	IC50 (human GLP-1 receptor [2]) [nM]	IC50 [3] [nM]
GLP-1 anti TfR-Fab fusion protein (compound of Example 6 / FIG. 6, SEQ ID NO: 11) (other, Two-chain Fab fusion; also called GLP-1-(GGGS)4-aTfR light chain + aTfR-(His)10 heavy chain) light: HGEGTFTSDVSSYLEEQAAREFIAWLVKGRPGGGSGGGSGGGSGGGSDIQMTQSPASLSASLEEIVTITCQASQDIGNWLAWYQQKPGKSPQLLIYGATSLADGVPSRFSGSRSGTQFSLKISRVQVEDIGIYYCLQAYNTPWTFGGGTKLELKRADAAPTVSIFPPSSEQLTSGGASVVCFLNNFYPKDINVKWKIDGSERQNGVLNSWTDQDSKDSTYSMSSTLTLTKDEYERHNSYTCEATHKTSTSPIVKSFNRNEC heavy: EVQLVESGGGLVQPGNSLTLSCVASGFTFSNYGMHWIRQAPKKGLEWIAMIYYDSSKMNYADTVKGRFTISRDNSKNTLYLEMNSLRSEDTAMYYCAVPTSHYVVDVWGQGVSVTVSSAKTTPPSVYPLAPGSAAQTNSMVTLGCLVKGYFPEPVTVTWNSGSLSSGVHTFPAVLQSDLYTLSSSVTVPSSTWPSETVTCNVAHPASSTKVDKKIVPRDCGHHHHHHHHHH	48.3	3.28	–
Vivotag 750 labelled GLP-1 anti TfR-Fab fusion protein (compound of Example 8 / FIG. 8) (other, VivoTag750 (NHS ester) randomly attached to amines; mixture of 0, 1, 2, 3 labels per molecule (average about 1), The label positions are not defined; also called GLP-1-Active TfR; fluorescence labelled GLP-1 anti TfR-Fab fusion protein) light: HGEGTFTSDVSSYLEEQAAREFIAWLVKGRPGGGSGGGSGGGSGGGSDIQMTQSPASLSASLEEIVTITCQASQDIGNWLAWYQQKPGKSPQLLIYGATSLADGVPSRFSGSRSGTQFSLKISRVQVEDIGIYYCLQAYNTPWTFGGGTKLELKRADAAPTVSIFPPSSEQLTSGGASVVCFLNNFYPKDINVKWKIDGSERQNGVLNSWTDQDSKDSTYSMSSTLTLTKDEYERHNSYTCEATHKTSTSPIVKSFNRNEC heavy: EVQLVESGGGLVQPGNSLTLSCVASGFTFSNYGMHWIRQAPKKGLEWIAMIYYDSSKMNYADTVKGRFTISRDNSKNTLYLEMNSLRSEDTAMYYCAVPTSHYVVDVWGQGVSVTVSSAKTTPPSVYPLAPGSAAQTNSMVTLGCLVKGYFPEPVTVTWNSGSLSSGVHTFPAVLQSDLYTLSSSVTVPSSTWPSETVTCNVAHPASSTKVDKKIVPRDCGHHHHHHHHHH	92.8	9.61	–
GLP-1 anti TNP-Fab fusion protein (compound of Example 5 / FIG. 5, SEQ ID NO: 8) (other, N-terminal residue found as pyroglutamic acid in the purified protein, Two-chain Fab fusion; also called GLP-1-(GGGS)4-aTNP light chain + aTNP-(His)10 heavy chain) light: HGEGTFTSDVSSYLEEQAAREFIAWLVKGRPGGGSGGGSGGGSGGGSDIVMTQTPLSLSVTPGQPASISCRSSQSLLHSNGNTYLHWYLQKPGQSPQLLIYKVSNRFSGVPDRFSGSGSGTDFTLKISRVEAEDVGVYYCSQSTHVPWTFGQGTKVEIKRTVAAPSVFIFPPSDEQLKSGTASVVCLLNNFYPREAKVQWKVDNALQSGNSQESVTEQDSKDSTYSLSSTLTLSKADYEKHKVYACEVTHQGLSSPVTKSFNRGEC heavy: QVQLQESGPGLVKPSETLSLTCTVSGGSISSGYWNWIRQPPGKGLEWIGTISYSGDTYYNPSLKSRVTISVDTSKNQFSLKLSSVTAADTAVYYCARYGSYVFDYWGQGTTVTVSSASTKGPSVFPLAPCSRSTSESTAALGCLVKDYFPEPVTVSWNSGALTSGVHTFPAVLQSSGLYSLSSVVTVPSSSLGTKTYTCNVDHKPSNTKVDKRVESKHHHHHHHHHH	267	12.5	–
GLP-1 control Fab fusion protein (compound of Example 7 / FIG. 7, SEQ ID NO: 12) (other, Hybrid of the anti-TNP light chain fusion and the anti-TfR heavy chain; also called hybrid construct) light: HGEGTFTSDVSSYLEEQAAREFIAWLVKGRPGGGSGGGSGGGSGGGSDIVMTQTPLSLSVTPGQPASISCRSSQSLLHSNGNTYLHWYLQKPGQSPQLLIYKVSNRFSGVPDRFSGSGSGTDFTLKISRVEAEDVGVYYCSQSTHVPWTFGQGTKVEIKRTVAAPSVFIFPPSDEQLKSGTASVVCLLNNFYPREAKVQWKVDNALQSGNSQESVTEQDSKDSTYSLSSTLTLSKADYEKHKVYACEVTHQGLSSPVTKSFNRGEC heavy: EVQLVESGGGLVQPGNSLTLSCVASGFTFSNYGMHWIRQAPKKGLEWIAMIYYDSSKMNYADTVKGRFTISRDNSKNTLYLEMNSLRSEDTAMYYCAVPTSHYVVDVWGQGVSVTVSSAKTTPPSVYPLAPGSAAQTNSMVTLGCLVKGYFPEPVTVTWNSGSLSSGVHTFPAVLQSDLYTLSSSVTVPSSTWPSETVTCNVAHPASSTKVDKKIVPRDCGHHHHHHHHHH	52.4	2.39	–
Vivotag 750 labelled GLP-1 control Fab fusion protein (compound of Example 9 / FIG. 9) (other, VivoTag750 (NHS ester) randomly attached to amines; mixture of 0, 1, 2, 3 labels per molecule (average about 1), The label positions are not defined; also called fluorescence labelled GLP-1 control Fab fusion protein) light: HGEGTFTSDVSSYLEEQAAREFIAWLVKGRPGGGSGGGSGGGSGGGSDIVMTQTPLSLSVTPGQPASISCRSSQSLLHSNGNTYLHWYLQKPGQSPQLLIYKVSNRFSGVPDRFSGSGSGTDFTLKISRVEAEDVGVYYCSQSTHVPWTFGQGTKVEIKRTVAAPSVFIFPPSDEQLKSGTASVVCLLNNFYPREAKVQWKVDNALQSGNSQESVTEQDSKDSTYSLSSTLTLSKADYEKHKVYACEVTHQGLSSPVTKSFNRGEC heavy: EVQLVESGGGLVQPGNSLTLSCVASGFTFSNYGMHWIRQAPKKGLEWIAMIYYDSSKMNYADTVKGRFTISRDNSKNTLYLEMNSLRSEDTAMYYCAVPTSHYVVDVWGQGVSVTVSSAKTTPPSVYPLAPGSAAQTNSMVTLGCLVKGYFPEPVTVTWNSGSLSSGVHTFPAVLQSDLYTLSSSVTVPSSTWPSETVTCNVAHPASSTKVDKKIVPRDCGHHHHHHHHHH	58.6	3.89	–
GLP-1 control Fab conjugate (compound of Example 14 / FIG. 14) (other, epsilon amino group of Lys at position 36 (GLP-1(7-37) numbering) carries the linker -Ado-gGlu-Ado-, joined via -CH2-C(O)- to Cys 382 of the Fab; thiol of Cys 382 (numbering of FIG. 14 / SEQ ID NO: 5) linked via Chem. 2 -CH2-C(O)-Ado-gGlu-Ado- to the GLP-1 analogue) light: DIVMTQTPLSLSVTPGQPASISCRSSQSLLHSNGNTYLHWYLQKPGQSPQLLIYKVSNRFSGVPDRFSGSGSGTDFTLKISRVEAEDVGVYYCSQSTHVPWTFGQGTKVEIKRTVAAPSVFIFPPSDEQLKSGTASVVCLLNNFYPREAKVQWKVDNALQSGNSQESVTEQDSKDSTYSLSSTLTLSKADYEKHKVYACEVTHQGLSSPVTKSFNRGEC heavy: EVQLVESGGGLVQPGNSLTLSCVASGFTFSNYGMHWIRQAPKKGLEWIAMIYYDSSKMNYADTVKGRFTISRDNSKNTLYLEMNSLRSEDTAMYYCAVPTSHYVVDVWGQGVSVTVSSASTKGPSVFPLAPCSRSTSESTAALGCLVKDYFPEPVTVSWNSGCLTSGVHTFPAVLQSSGLYSLSSVVTVPSSSLGTKTYTCNVDHKPSNTKVDKRVESK peptide: HGEGTFTSDVSSYLEEQAAREFIAWLVRGKG	818	55.9	–
GLP-1 anti TfR-Fab conjugate (compound of Example 15 / FIG. 15) (other, epsilon amino group of Lys at position 36 (GLP-1(7-37) numbering) carries the linker -Ado-gGlu-Ado-, joined via -CH2-C(O)- to Cys 377 of the Fab; thiol of Cys 377 (numbering of FIG. 15 / SEQ ID NO: 3) linked via Chem. 2 -CH2-C(O)-Ado-gGlu-Ado- to the GLP-1 analogue) light: DIQMTQSPASLSASLEEIVTITCQASQDIGNWLAWYQQKPGKSPQLLIYGATSLADGVPSRFSGSRSGTQFSLKISRVQVEDIGIYYCLQAYNTPWTFGGGTKLELKRTVAAPSVFIFPPSDEQLKSGTASVVCLLNNFYPREAKVQWKVDNALQSGNSQESVTEQDSKDSTYSLSSTLTLSKADYEKHKVYACEVTHQGLSSPVTKSFNRGEC heavy: EVQLVESGGGLVQPGNSLTLSCVASGFTFSNYGMHWIRQAPKKGLEWIAMIYYDSSKMNYADTVKGRFTISRDNSKNTLYLEMNSLRSEDTAMYYCAVPTSHYVVDVWGQGVSVTVSSASTKGPSVFPLAPCSRSTSESTAALGCLVKDYFPEPVTVSWNSGCLTSGVHTFPAVLQSSGLYSLSSVVTVPSSSLGTKTYTCNVDHKPSNTKVDKRVESK peptide: HGEGTFTSDVSSYLEEQAAREFIAWLVRGKG	435	32.5	17.4
